Measurements reported in patent US7815907B2, “Antibodies to insulin-like growth factor I receptor” (Amgen Fremont Inc., priority 2001, dated 2010).

Legend:
COS7 IGF-IR = experiment: Species crossreactivity by immunoprecipitation/Western blot; assay type: binding, old world monkey; settings: immunoprecipitation, antibody 1 μg/ml
Protocol: To perform immunoprecipitation experiments, we plated cells in DMEM high glucose media supplemented with L-glutamine (0.29 mg/ml), 10% heat-inactivated FBS, and 500 μg/ml each of geneticin, penicillin and streptomycin to 50% confluence in T25 flasks. We then added 100 μl of an antibody of the invention in Hank's buffered saline solution (HBSS; Gibco BRL) at a concentration of 1 μg/ml. We incubated the plates for 30 minutes at 37° C. in an incubator and then stimulated the cells with IGF-I at 100 ng/ml for 10 minutes at room temperature. We lysed the cells in RIPA buffer (Harlow and Lane, supra) and immunoprecipitated IGF-IR with 2 μg of pan-specific SC-713 anti-IGF-IR antibody (Santa Cruz) plus protein A agarose beads for 1 hour at 4° C. We pelleted the beads and wash three times with PBS/T (PBS+0.1% Tween-20) and then boiled the beads in 40 μl Laemmli buffer containing 5% βME.
The samples prepared as described above were then analyzed by Western blot. We loaded 12 μl of each sample per lane on 4-10% gradient Novex™ gels run with 1×MES buffer (Novex™). Gels were run at 150V for 1 hour or at 200V for approximately 30 minutes. We then transferred the gel to a membrane in Novex™ transfer buffer with 10% methanol either overnight at 100 mA or for 1-1.5 hours at 250 mA. […]

IGF-IR [1] = target: T1, IGF-IR (Homo sapiens, UniProt P08069); experiment: IGF-IR levels in 3T3/IGF-IR tumors by western blot after antibody and/or adriamycin; assay type: in vivo, nude mice; design: expressed in transfected cells; host or cells: NIH-3T3 (mouse fibroblasts)
Protocol: Tumors were induced in nude mice as described in Example IX. Mice with established subcutaneous tumors of approximately 400 mm^3 were treated with a single injection of 250 μg 2.13.2 antibody (i.p.) or with 7.5 mg/kg adriamycin (i.v.), either as single agents or in combination, as described in Example IX. 72 hours after administration of the agents, tumors were extracted as described in Example VIII, and equal amounts of the tumor extracts were subjected to sodium […] polyacrylamide gel electrophoresis (SDS PAGE) and western blot analysis using the anti-IGF-IR antibody SC-713 (Santa Cruz). […] Each lane represents equal amounts of protein from individual tumors from individual mice.

IGF-IR [2] = target: T1, IGF-IR; experiment: IGF-IR and IGF-IR phosphotyrosine levels in 3T3-IGF-IR tumors in vivo (ELISA); design: expressed in transfected cells; host or cells: NIH-3T3 (mouse fibroblasts); species or system athymic (nu/nu) mice
Source text: We determined whether the effects of the antibodies of the invention on IGF-IR as described in the previous examples would occur in vivo. We induced tumors in athymic mice according to published methods (V. A. Pollack et al., “Inhibition of epidermal growth factor receptor-associated tyrosine phosphorylation in human carcinomas with CP-358,774: Dynamics of receptor inhibition in situ and antitumor effects in athymic mice,” J. Pharmacol. Exp. Ther. 291:739-748 (1999). Briefly, we injected IGF-IR-transfected NIH-3T3 cells (5×10^6) subcutaneously into 3-4 week-old athymic (nu/nu) mice with 0.2 ml of Matrigel preparation. We then injected mice with an antibody of the invention intraperitoneally after established (i.e. approximately 400 mm^3) tumors formed.
After 24 hours, we extracted the tumors, homogenized them and determined the level of IGF-IR. To determine IGF-IR levels, we diluted the SC-713 antibody in Blocking buffer to a final concentration of […] and added 100 μl to each well of a Reacti-Bind Goat anti-rabbit (GAR) coated plate (Pierce). We incubated the plates at room temperature for 1 hour with shaking and then washed the plates five times with wash buffer. We then weighed tumor samples that had been prepared as described above and homogenized them in lysis buffer (1 ml/100 mg). We diluted 12.5 μl of tumor extract with lysis buffer to a final volume of 100 μl and added this to each well of a 96-well plate. We incubated the plates at room temperature with shaking for 1-2 hours and then washed the plates five times with Wash buffer. We then added 100 μl HRP-PY54 or biotinylated anti-IGF-IR antibody in Blocking buffer to each well and incubated at room temperature with shaking for 30 minutes. We then washed the plates five times with wash buffer and developed the plates. […] We then quantitated the signal by shaking for 10 seconds and measuring OD450nm. […]
Tumors were induced in nude mice as described in Example VIII. […] Tumors were extracted and IGF-IR levels were measured by ELISA as described in Example VIII.

[3] = target: T2, extracellular domain of IGF-IR (Homo sapiens, UniProt P08069); experiment: BIAcore affinity measurement, Protocol 1; assay type: binding; settings: BIAcore 3000; antibody captured on protein-A, IGF-IR extracellular domain injected
T2 construct: Different concentrations of the extracellular domain of IGF-IR were injected on the sensorchip
Protocol: We performed affinity measures of purified antibodies by surface plasmon resonance using the BIAcore 3000 instrument, following the manufacturer's protocols.
To perform kinetic analyses, protein-A was immobilized on the sensorchip surfaces of the BIAcore. The sensorchip was then used to capture the anti-IGF-IR antibodies of the present invention. Different concentrations of the extracellular domain of IGF-IR were injected on the sensorchip and the binding and dissociation kinetics of the interactions between the anti-IGF-IR antibodies and the extracellular domain of IGF-IR were analyzed. The data were evaluated with global fit Langmuir 1:1, using baseline drift models available on the BIAevaluation software provided by BIAcore.

[4] = intraperitoneal injection, tumors extracted after 24 hours

2.13.2: human IgG2κ monoclonal antibody specific for IGF-IR from hybridoma 2.13.2 (ATCC PTA-2788)
binding to COS7 IGF-IR (COS7 IGF-IR): able to bind
IGF-IR levels in tumors, adriamycin and antibody together (IGF-IR [1]; 72 hours after 250 μg 2.13.2 i.p. plus 7.5 mg/kg adriamycin i.v.): dramatic decrease in IGF-IR levels
IGF-IR levels in tumors, single agent (IGF-IR [1]; 72 hours after single 250 μg 2.13.2 i.p. or 7.5 mg/kg adriamycin i.v.): some decrease in IGF-IR levels
IGF-IR receptor levels in tumors over time (IGF-IR [2]; 125 μg by intraperitoneal injection): down-regulated
IGF-IR phosphotyrosine (phosphorylated IGF-IR) in tumors (IGF-IR [2]; [4]): decrease
total IGF-IR protein in tumors (IGF-IR [2]; [4]): decrease
Kd [3]: 3.5 nM
